Here are results for one molecule from US20200407435A1 (Boehringer Ingelheim, published 2020).

Where a chain is given by its changes, count along the chain named. Where “and” joins values, the source holds several entries; their conditions need not be identical. Identical values can stand only once.

Assay [1] concerns the target T1, rhAngiopoietin-2 (R&D systems cat 623-AN/CF) (human, UniProt O15123 19-496, limits assumed).
T1 sequence (looked up): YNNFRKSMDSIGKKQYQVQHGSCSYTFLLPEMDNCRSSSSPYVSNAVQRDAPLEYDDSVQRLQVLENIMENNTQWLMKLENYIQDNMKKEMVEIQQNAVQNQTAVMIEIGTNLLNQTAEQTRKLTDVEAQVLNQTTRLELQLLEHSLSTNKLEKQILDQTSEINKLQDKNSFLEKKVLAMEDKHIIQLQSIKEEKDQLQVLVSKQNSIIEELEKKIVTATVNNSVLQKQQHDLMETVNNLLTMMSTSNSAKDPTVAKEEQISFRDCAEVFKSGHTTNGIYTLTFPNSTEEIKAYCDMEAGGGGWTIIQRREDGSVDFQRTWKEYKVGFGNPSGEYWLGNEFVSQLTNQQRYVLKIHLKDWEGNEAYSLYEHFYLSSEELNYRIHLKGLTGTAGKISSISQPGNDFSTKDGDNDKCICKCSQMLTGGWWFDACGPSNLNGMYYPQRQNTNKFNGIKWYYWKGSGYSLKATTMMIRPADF
As to the kind of experiment: cell-based or functional assay.

The next assay addresses T2, rabbit ANGPT2 (rabbit, UniProt G1T9B3 275-496).
T2 construct: domain: FLD domain; also called rabbit ANGPT2 FLD domain
T2 sequence: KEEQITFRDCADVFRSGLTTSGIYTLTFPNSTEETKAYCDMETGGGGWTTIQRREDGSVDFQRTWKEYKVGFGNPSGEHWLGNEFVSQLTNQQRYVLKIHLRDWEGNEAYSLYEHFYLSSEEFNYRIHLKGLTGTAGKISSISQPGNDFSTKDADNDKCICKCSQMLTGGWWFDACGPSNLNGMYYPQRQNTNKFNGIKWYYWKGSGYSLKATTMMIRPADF
As to the kind of experiment: SPR (ProteOn XPR36), antibody captured on Protein A/G, rabbit ANGPT2 as analyte. As for the experimental part:
The binding affinity to the various ANGPT2 analytes is determined by surface plasmon resonance (SPR) using a ProteOn XPR36 (Bio-Rad). Unless otherwise stated, all reagents are obtained from Bio-Rad. The running buffer for all assays and dilutions (except where stated) is phosphate buffered saline (PBS)/ethylenediamine tetraacetic acid (EDTA) with 0.01% Tween20 (PBS-T-EDTA). PBS-T-EDTA is prepared by adding 100 μl of 100% Tween20 to 2 L of PBS-T-EDTA with an initial concentration of 0.005% Tween20 to make a final Tween20 concentration of 0.01%. The general linearized model (GLM) sensorchip is normalized, pre-conditioned, and activated with an equal mixture of 1-ethyl-3-[3-dimethylaminopropyl]carbodiimide (EDC)/N-hydroxysulfosuccinimide (s-NHS) in the horizontal direction for 300 sec at a flow rate of 30 μl/min. Immobilization is then is done with Recombinant Protein A/G (Thermo Scientific) (60 μg/ml in 10 mM acetate pH 4.5) in the horizontal direction for 300 sec at a flowrate of 30 μl/min resulting in about 4370-4875 response units (RUs) of Protein A/G on the surface. The sensorchip is then deactivated with 1M ethanolamine HCl in the horizontal direction for 300 sec at a flowrate of 30 μl/min. The sensorchip is stabilized with 18 sec of 0.85% phosphoric acid at a flowrate of 100 μl/min 3 times horizontally and 3 times vertically. […]

Assay [2] deals with T3, human ANGPT2 (SPR analyte) (human, UniProt O15123 275-496, limits assumed).
T3 construct: domain: FLD domain; also called HuANGPT2; human ANGPT2 FLD domain
T3 sequence (looked up): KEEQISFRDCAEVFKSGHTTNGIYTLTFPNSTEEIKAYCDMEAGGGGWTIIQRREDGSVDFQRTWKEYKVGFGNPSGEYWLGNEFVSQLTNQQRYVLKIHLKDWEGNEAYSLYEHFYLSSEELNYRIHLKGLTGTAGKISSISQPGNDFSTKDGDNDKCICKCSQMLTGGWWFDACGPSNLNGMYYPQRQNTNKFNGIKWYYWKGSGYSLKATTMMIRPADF
As to the kind of experiment: SPR (ProteOn XPR36), antibody captured on Protein A/G, ANGPT2 as analyte, 1:1 Langmuir fit. The protocol: (§1) The binding affinity to the various ANGPT2 analytes is determined by surface plasmon resonance (SPR) using a ProteOn XPR36 (Bio-Rad). Unless otherwise stated, all reagents are obtained from Bio-Rad. The running buffer for all assays and dilutions (except where stated) is phosphate buffered saline (PBS)/ethylenediamine tetraacetic acid (EDTA) with 0.01% Tween20 (PBS-T-EDTA). PBS-T-EDTA is prepared by adding 100 μl of 100% Tween20 to 2 L of PBS-T-EDTA with an initial concentration of 0.005% Tween20 to make a final Tween20 concentration of 0.01%. The general linearized model (GLM) sensorchip is normalized, pre-conditioned, and activated with an equal mixture of 1-ethyl-3-[3-dimethylaminopropyl]carbodiimide (EDC)/N-hydroxysulfosuccinimide (s-NHS) in the horizontal direction for 300 sec at a flow rate of 30 μl/min. Immobilization is then is done with Recombinant Protein A/G (Thermo Scientific) (60 μg/ml in 10 mM acetate pH 4.5) in the horizontal direction for 300 sec at a flowrate of 30 μl/min resulting in about 4370-4875 response units (RUs) of Protein A/G on the surface. The sensorchip is then deactivated with 1M ethanolamine HCl in the horizontal direction for 300 sec at a flowrate of 30 μl/min. The sensorchip is stabilized with 18 sec of 0.85% phosphoric acid at a flowrate of 100 μl/min 3 times horizontally and 3 times vertically.
(§2) Each ANGPT2 antibody is captured on the Protein A/G surface vertically for 300 sec at a flowrate of 30 μl/min resulting in a capture level of about 2500 RU. The baseline is stabilized by injecting PBS-T-EDTA for 60 sec at a flowrate of 100 μl/min horizontally with dissociation of 120 sec. The analyte (e.g., HuANGPT2) is injected horizontally over the captured antibody for 300 sec at a flowrate of 30 μl/min and a dissociation for 1800 sec. […] The surface is regenerated by injecting 0.85% phosphoric acid for 18 sec at a flowrate of 100 μl/min one time horizontally and one time vertically. PBS-T-EDTA is injected for 60 sec at a flowrate of 100 μl/min one time vertically and one time horizontally.
(§3) The interspot (interactions with sensor surface) and blank (PBS-T-EDTA with 0.01% Tween20 or 0 nM of analyte (here HuANGPT2)) are subtracted from the raw data.

For the next assay, the target named is T4, cynomolgus (cyno) ANGPT2 (cynomolgus, UniProt A0A2K5VNX6 275-496).
T4 construct: domain: FLD domain; also called cyno ANGPT2 FLD domain
T4 sequence: T3 sequence (looked up) with E2G, I23V, F28L, I35V, G154A, A212G, D221G
The description is as above. The protocol: as §1, §2, §3

Assay [3] deals with T5, Human ANGPT2 Dimer (CC-FLD) (human, UniProt O15123 74-496, limits assumed).
T5 construct: domain: CC-FLD; also called ANGPT2 protein with His-tag; not shown: His-tag
T5 sequence (looked up): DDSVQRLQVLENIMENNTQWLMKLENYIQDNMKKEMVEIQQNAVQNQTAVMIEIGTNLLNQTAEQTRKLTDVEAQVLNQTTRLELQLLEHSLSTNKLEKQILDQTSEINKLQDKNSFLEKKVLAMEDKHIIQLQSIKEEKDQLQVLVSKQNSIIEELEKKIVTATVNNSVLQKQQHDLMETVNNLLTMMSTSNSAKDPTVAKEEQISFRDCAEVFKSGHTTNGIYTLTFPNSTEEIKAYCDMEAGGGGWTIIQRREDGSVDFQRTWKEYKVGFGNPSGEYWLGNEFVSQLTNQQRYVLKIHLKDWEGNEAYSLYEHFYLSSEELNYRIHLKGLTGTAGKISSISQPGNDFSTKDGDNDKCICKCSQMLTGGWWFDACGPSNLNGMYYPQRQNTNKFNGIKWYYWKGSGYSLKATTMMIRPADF
As to the kind of experiment: flow cytometry blocking assay: antibody titrated against His-tagged human ANGPT2 dimer (CC-FLD) binding to HEK293 human Tie2 cells. As for the experimental part:
Human ANGPT2 Dimer (CC-FLD) is pre-incubated with the testing antibodies. The ANGPT2/Antibody mixture is then incubated with HEK293 human Tie2 cells at 4° C. After washing, the cells are stained with anti-His-AF647 (from GenScript) for detection of the His-tag on the ANGPT2 protein. The binding of the secondarily labelled ANGPT2 to human Tie2 cells is detected by FLOW cytometry. The average of the duplicate values for each concentration point is used to derive the curve fit graphs. Antibodies that prevent ANGPT2 from binding to the Tie2 cells are considered blocking antibodies. The results are shown in FIGS. 3A-3G and the EC50 values are shown in Table 5 based on the average of duplicate values.

B1: ANGPT2-opt-13 (humanized) (antibody, human IgG1, kappa, V domains shown)
VH: QVQLVQSGAEVKKPGSSVKVSCKASGYIFIDYFINWVRQAPGQGLEWMGKIGPGSGSSSSNEKFKGRVTITADKSTSTAYMELSSLRSEDTAVYYCAREAFDYDGDYYGMAYWGQGTLVTVSS
VL: EIVMTQSPATLSVSPGERATLSCKSSQSLLSSGNQKSFLAWYQQKPGQAPRLLIYGASTRETGIPARFSGSGSGTEFTLTISSLQSEDFAVYYCQNDHSYPITFGQGTKLEIKR
notes: also called Ang2-opt-13; ANGPT-opt-13
In the case of B1, in assay [1], the “Tie2 phosphorylation functional assay, EC50” value was 4.2 nM and 4 nM. In the assay with rabbit ANGPT2, the Kd stood at 0.133 nM. In assay [2], this molecule yielded a Kd of 0.144 nM, a koff of 1.89e-05 s⁻¹ and a kon of 132000 M⁻¹ s⁻¹. Moreover, in the assay with cynomolgus (cyno) ANGPT2, the Kd is 0.146 nM, the koff was found to be 2.08e-05 s⁻¹ and the kon was 142000 M⁻¹ s⁻¹. Besides, a half-maximal response in assay [3] (EC50) required 13 nM.
